Measured values as given in PMC4157861.

Molecular target: FHA domain of human kanadaptin (residues 149-276) (human) (UniProt Q9BWU0)
Experiment: crystal structure; crystals from 1.6 M ammonium sulfate, 0.1 M citric acid pH 5.0, 277 K; space group P2(1)2(1)2(1); tag removed; one homodimer in the asymmetric unit

FHA domain of human kanadaptin (residues 149-276) (from UniProt Q9BWU0 149-276) (domain or fragment)
stoichiometry N: 2
